US20260028402A1

Target: HuCD100-His (human) (UniProt Q92854)
Assay: cell-based or functional assay

- MDSC proportion (%) at 2.821 nM antibody: 27.1%
- MDSC proportion (%) at 8.463 nM antibody: 16.3%
- MDSC proportion (%) at 25.389 nM antibody: 8.29%
- MDSC proportion (%) at 76.166 nM antibody: 6.92%
- MDSC proportion (%) at 228.498 nM antibody: 6.97%
- MDSC proportion (%) at 685.495 nM antibody: 10.3%
B1: Pepinemab (antibody, INN chains, looked up, V domains shown)
VH: QVQLVQSGAEVKKPGSSVKVSCKASGYSFSDYYMHWVRQAPGQGLEWMGQINPTTGGASYNQKFKGKATITVDKSTSTAYMELSSLRSEDTAVYYCARYYYGRHFDVWGQGTTVTVSS
VL: DIVMTQSPDSLAVSLGERATINCKASQSVDYDGDSYMNWYQQKPGQPPKLLIYAASNLESGVPDRFSGSGSGTDFTLTISSLQAEDVAVYYCQQSNEDPYTFGQGTKLEIK
modifications: IgG4
